Reference: patent US20220033505A1

Assays:
[1] = molecular target: HLA-A exogenously expressed on cells (K562-HLA-A) (human) (UniProt P04439); assay: flow cytometry; IgG1 mAb on cells expressing HLA-A
[2] = molecular target: HLA-C exogenously expressed on cells (K562-HLA-C) (human) (UniProt P10321); assay: flow cytometry; IgG1 mAb on cells expressing HLA-C
[3] = molecular target: HLA-B exogenously expressed on cells (K562-HLA-B) (human) (UniProt P01889); assay: flow cytometry; IgG1 mAb on cells expressing HLA-B
HLA-B exogenously expressed on cells (K562-HLA-B) (human), sequence (P01889 25-362): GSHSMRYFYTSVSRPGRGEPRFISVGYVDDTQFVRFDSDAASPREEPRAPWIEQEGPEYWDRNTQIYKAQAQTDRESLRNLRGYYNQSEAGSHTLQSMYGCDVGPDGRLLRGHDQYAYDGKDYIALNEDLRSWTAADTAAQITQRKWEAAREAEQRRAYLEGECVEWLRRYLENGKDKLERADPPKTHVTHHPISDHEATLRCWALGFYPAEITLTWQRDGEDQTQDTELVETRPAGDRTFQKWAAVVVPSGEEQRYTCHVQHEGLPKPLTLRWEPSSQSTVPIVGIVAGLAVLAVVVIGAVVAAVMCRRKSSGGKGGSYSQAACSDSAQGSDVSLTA

HLA-C exogenously expressed on cells (K562-HLA-C) (human), sequence (P10321 25-366): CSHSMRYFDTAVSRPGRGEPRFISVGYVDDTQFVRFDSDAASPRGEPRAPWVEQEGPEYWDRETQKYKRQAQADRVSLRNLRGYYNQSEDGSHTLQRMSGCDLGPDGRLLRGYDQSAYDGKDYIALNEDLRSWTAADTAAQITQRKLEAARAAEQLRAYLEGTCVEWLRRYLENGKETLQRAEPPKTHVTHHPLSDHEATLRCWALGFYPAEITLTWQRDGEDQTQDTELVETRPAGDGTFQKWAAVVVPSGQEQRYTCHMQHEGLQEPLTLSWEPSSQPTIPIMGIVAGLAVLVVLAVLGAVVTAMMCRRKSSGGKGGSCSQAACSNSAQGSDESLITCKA

B1: MHGB689 (antibody, human IgG1, kappa, V domains shown)
VH: QVQLQQSGPGLVKPSQTLSLTCVISGDSVSSNRAAWNWIRQSPSRGLEWLGRTYYRSKWYNDYAVSVKSRITINSDTSKNQISLQLNSVTPEDTAVYYCARVRPGIPFDYWGQGTTVTVSS
VL: DIQMTQSPDSLAVSLGERATINCESSQSVLFSSNKKNYLAWYQQKPGQPPKLLIYWASTRESGVPDRFSGSGSGTDFTLTINRLQAEDVAVYYCQQYNSTPWTFGQGTKVEIKR
[1]
  Geomean fluorescence signal (maximum value for binding): 2540
[2]
  Geomean fluorescence signal (maximum value for binding): 266
[3]
  Geomean fluorescence signal (maximum value for binding): 5790
